Assay results taken from the supplement of paper PMC10126150.
± gives the standard deviation of the averaged measurements.

Test system: ATP
Assay: switch fluorescence ratio, 500 uM ATP over buffer (Cy3 cluster intensity, sum of 5 cycles each) (fold (ratio)); higher = stronger signal-on switching upon ATP binding; sequences stand for … in TCGTCGGCAGCGTCAGATGTGTATAAGAGACAGTTTTTTTTTTTTTTTTTTTTTTTTT…TC
Conditions: aptamer strand: ATP DNA aptamer (quencher-CACCTGGGGGAGTATTGCGGAGGAAGG + anchor), 100 nM annealed; ATP concentration: 500 uM
In short: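 Cy3-labelled switching-strand clusters on a modified Illumina MiSeq flow-cell were annealed to 100 nM quencher-labelled ATP aptamer, imaged in selection buffer, then imaged after 15 min with 500 uM ATP at 22 °C. Five buffer/ATP cycles ran, with NaOH stripping and re-annealing between them. The fluorescence ratio is summed target-cycle over summed buffer-cycle Cy3 intensity per cluster, averaged per switch-domain sequence. Clusters outside 100-1000 RFU were excluded.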
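Further: ATP exposure 15 min at 22 °C before imaging.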

Sequence | switch fluorescence ratio
GCAAAGTGGA | 0.9773 ± 0.0047
AACCGATGCT | 1.094 ± 0.005
TCGACGATTT | 1.23 ± 0.26
GAGGGAGTAT | 0.9959 ± 0.0027
GATGTAGATA | 0.9778 ± 0.0032
TAGGGAGAAT | 0.992 ± 0.054
TTTTCCTGGG | 1.03 ± 0.063
TTTTCGGAGT | 1.01 ± 0.037
GATATATAGA | 0.998 ± 0.032
ATCAATTCGA | 1.021 ± 0.0038
GCGATTGGAT | 1.03 ± 0.0022
CGGTGTCTCA | 1.0117 ± 0.00057
CCGTGCTTTT | 1.08 ± 0.047
TTTTTATATT | 1.21 ± 0.44
CACCTAATGT | 1.06 ± 0.015
GCTTGTATTT | 1 ± 0.014
GGGAGGCGAG | 1.016 ± 0.0011
GGCGACGGAG | 0.97 ± 0.0076
GGCCCTTTGG | 0.984 ± 0.0082
GTTTTCTGAG | 0.9658 ± 0.0089
TGGGACTTTG | 1.0328 ± 0.001
GCTGGAAGCA | 0.986 ± 0.078
GGATTAGGAG | 0.975 ± 0.011
ACGAGGGCCA | 1.004 ± 0.0086
GAAAAAAATT | 1.02 ± 0.024

Sequence | switch fluorescence ratio
TTCGGGATTT | 1.007 ± 0.0062
TACGCTGGGG | 1.02 ± 0.04
TGTGATTTAA | 1.002 ± 0.0028
TTGGGTTGAG | 0.999 ± 0.016
TTATTGTTAG | 0.9784 ± 0.0027
AGTAAAAAAT | 0.9891 ± 0.0066
ACGTCAGGGT | 1.0361 ± 0.00046
CCAGATATCA | 0.999 ± 0.054
GTTAGCAGGG | 1.01 ± 0.044
TGATCTGCAG | 1.016 ± 0.0077
CAGGTTAATG | 1.0027 ± 0.00049
ATGTCAGGGG | 1.14 ± 0.021
GACATAAAGT | 0.986 ± 0.014
GTTTGCGCTT | 1.01 ± 0.021
GACGACTATT | 1.13 ± 0.016
TGGTAGGCGT | 0.987 ± 0.031
CGTTTGTCGT | 1.04 ± 0.031
CTATCGTGGT | 0.9554 ± 0.0033
GGCGGTTTGG | 1.002 ± 0.0058
CATTTTTATC | 0.992 ± 0.012
GGCTATTTAA | 1.002 ± 0.0063
ATTGGACTGG | 0.998 ± 0.057
TGCGTTATTA | 0.999 ± 0.017
GTTATCGAGG | 1.02 ± 0.011
ATGAAAGGAT | 1.014 ± 0.0042

Sequence | switch fluorescence ratio
TGTTGAAAAT | 1.02 ± 0.048
ATGTTATTGT | 0.98 ± 0.049
AACAGTGTAT | 1.01 ± 0.03
TCTCTGTCGA | 1.4 ± 0.11
TGACGCCGAA | 1.07 ± 0.019
TGGGAGGGGA | 1.03 ± 0.035
GCTTCCTTGG | 1.31 ± 0.079
GGGACGGGGT | 0.963 ± 0.063
TACTGATCGT | 1.04 ± 0.024
ACCAAGGGCT | 0.996 ± 0.034
TTTACTATAT | 1.04 ± 0.032
GTAGGGGCGG | 1.0124 ± 0.00012
ATATATGGAG | 1.011 ± 0.00029
AGGCGCAATT | 1.81 ± 0.94
TAAGATGTCA | 1.02 ± 0.034
GGGAAGATTG | 0.966 ± 0.052
CATTCCGAGA | 1.4 ± 0.024
TTAAGTGTTT | 1 ± 0.022
TTTTATAGGA | 0.976 ± 0.006
TATTCGATTT | 1.032 ± 0.0016
GGGTCATGTA | 1.008 ± 0.0027
AGCGGGGGTA | 1.01 ± 0.034
AATGAAGGTC | 0.965 ± 0.079
GATACTTCTA | 0.972 ± 0.026
CATGCTAAGT | 0.997 ± 0.011

Sequence | switch fluorescence ratio
ATGAGGCGAA | 1.01 ± 0.011
TCGGCGTTGG | 1.03 ± 0.026
CAGGGCGGGA | 0.936 ± 0.028
AGAGGCTAGG | 1.01 ± 0.032
CAAAGGGAAA | 1.02 ± 0.033
ATGTAGGGTG | 1.008 ± 0.0039
GTGGGATAAT | 1.02 ± 0.021
GGAGAAATGT | 0.998 ± 0.011
CCTTTGTATT | 1.04 ± 0.031
TAGCTGGCTG | 0.986 ± 0.043
TTATGGGGCG | 1.02 ± 0.035
TCATTTAGGG | 0.9893 ± 0.0081
TCCAATGATG | 1.03 ± 0.018
CAAGTTGGCT | 0.987 ± 0.039
ACCATGGGAT | 1.02 ± 0.015
GTTTGGGCCG | 1.07 ± 0.028
TTCGATGATA | 1.07 ± 0.08
ATTCAAAAAT | 1.04 ± 0.016
TACCGTTTAT | 1.02 ± 0.036
GAACGGAAGG | 1.014 ± 0.0043
CCGTTGAGTG | 0.995 ± 0.024
CATTTCGTTT | 0.957 ± 0.014
GGTCGCAACC | 1.04 ± 0.049
CCTACAGTGA | 1.752 ± 0.015
AATTGGGTAA | 1.025 ± 0.0083

Sequence | switch fluorescence ratio
TATCCCATAC | 1.49 ± 0.073
GTTGCTGTTT | 1 ± 0.048
ATATCATGTC | 0.9895 ± 0.0032
ACTTAAGAAA | 1.16 ± 0.13
ATTGCCCACC | 1.026 ± 0.0086
TAGCCATGTC | 0.924 ± 0.053
TCCGTGTGGG | 1.04 ± 0.028
GTGTGGAGGA | 1.03 ± 0.037
TCTACGGCGT | 0.9991 ± 0.0059
GGTTGAAAGT | 1.48 ± 0.69
TTTTACAGTT | 1.02 ± 0.023
AACCGGTAAT | 1.01 ± 0.022
TCCAGTGGCT | 1 ± 0.017
TTGGCGAAGG | 0.982 ± 0.045
TATAATTGGG | 0.9921 ± 0.0015
CATTCACATT | 1.05 ± 0.034
CCCCTGGATA | 1.03 ± 0.043
GATTGATGGG | 0.995 ± 0.024
ACACCATTAA | 1.02 ± 0.03
TTATTTGGGA | 0.991 ± 0.043
CCCCAAGCAG | 2.497 ± 0.0041
ATTACTGTGT | 0.99 ± 0.02
GAGTCCATGG | 0.985 ± 0.013
TTGAACTGTG | 1.02 ± 0.22
TTGGGGTGTC | 1.01 ± 0.021

Sequence | switch fluorescence ratio
TGGGATGCAG | 1.01 ± 0.065
GTGTTAGGGT | 0.984 ± 0.035
TTTCTAGTTT | 0.984 ± 0.026
CTTGTTTTGT | 1.02 ± 0.015
TATAGAGATG | 1.01 ± 0.036
AAGTTGGGCC | 0.955 ± 0.044
CTCGATAGGT | 0.984 ± 0.028
TTAAAATCAC | 1.09 ± 0.077
CGGGTTCAT | 1.01 ± 0.028
TTTAATGTCC | 0.976 ± 0.07
TGATTTGTTG | 0.971 ± 0.011
ATGGAATAT | 0.969 ± 0.038
CCGTTGAAAT | 1.22 ± 0.011
GCCAGGCATT | 0.989 ± 0.05
GTTTACTCTT | 0.996 ± 0.025
AGGGACTTTA | 1.0332 ± 0.00011
CGTGAAGATG | 0.9674 ± 0.0068
TGAAGCATTT | 1.17 ± 0.14
ATCGCGTACT | 1.19 ± 0.04
AATGTATGTT | 1.032 ± 0.0074
AGCTGATTGC | 1 ± 0.02
CGAGTCGCGA | 1.04 ± 0.062
GGGGGTAATT | 1.1 ± 0.052
GGATGATCTT | 0.972 ± 0.022
GAATTTGTGG | 0.995 ± 0.037

Sequence | switch fluorescence ratio
AGGGAAATAA | 0.987 ± 0.026
TCATTTTCCG | 0.996 ± 0.043
TTAAGGTTAG | 0.976 ± 0.024
TCCAGGAGGT | 1.02 ± 0.033
GAGGGGCTAA | 0.9516 ± 0.0088
CGAGGGCGGG | 0.999 ± 0.016
CAAGCCGGGG | 0.979 ± 0.021
GGGATTTGGC | 0.995 ± 0.036
ACTGATGATC | 1.016 ± 0.0039
CCTGCCGTTA | 1.27 ± 0.078
GGGATCCTTG | 1 ± 0.022
AGCGGCCTG | 1.01 ± 0.056
ATTTTAAAGA | 1.009 ± 0.0062
ATCAAGGGGA | 0.972 ± 0.028
ATTGAATTCG | 1 ± 0.011
TTTCACCTTT | 1.02 ± 0.047
GATGGGCGGT | 0.9773 ± 0.0094
GCTCCCGGGC | 1.1 ± 0.041
TGGGTAGGGT | 0.991 ± 0.036
AATTGGGCTA | 0.9994 ± 0.0056
CACATGCTCG | 1.05 ± 0.076
TCGATAAATG | 1.06 ± 0.033
GTCGGTATTT | 0.986 ± 0.03
CATTTGAATT | 0.973 ± 0.033
TCGTGATTTT | 1 ± 0.035

Sequence | switch fluorescence ratio
TTAGTCCTTG | 0.9914 ± 0.0024
TAGGGGAGTG | 1.02 ± 0.035
GGGTCAACGT | 0.987 ± 0.015
GATTTCACTC | 1 ± 0.026
CAGAGATCTG | 0.9732 ± 0.0053
CAACCTGAAC | 2.39 ± 0.2
GATATAGAGG | 0.986 ± 0.055
TTTATGGGAA | 1.01 ± 0.026
CTGGAAGGGG | 1.04 ± 0.024
TGGGTCCAGT | 0.98 ± 0.011
AAGTTTAGAA | 1 ± 0.012
TTCTTAGCAC | 1.58 ± 0.17
CAGGGGGCAC | 1.05 ± 0.042
GATTGGATGA | 0.992 ± 0.045
ACTTCACTGC | 1.34 ± 0.042
TGGGCGACCG | 0.99 ± 0.021
TGTCGTTATT | 0.9546 ± 0.0018
GGTTCGTCTG | 0.981 ± 0.021
CAAATTTGGG | 1.02 ± 0.014
CGTTGGCGTG | 0.947 ± 0.036
GCAAGGGTTG | 1.01 ± 0.022
CAGTAGGTCT | 1.01 ± 0.027
AGTGACACCT | 1.15 ± 0.054
CGTGCGTCGG | 1.01 ± 0.017
TCACGGCTGG | 0.971 ± 0.029
